# Laboratory results: patent publication US8629107B2, “Genes and proteins associated with angiogenesis and uses thereof” (National Jewish Health, priority 2005, dated 2014)
# How the values were obtained:
# Assay type in all cases: cell-based, murine
# MB114 cells [1] = assay: angiogenic sprouting in rat tail collagen matrices; conditions: 5 days; for angiogenic sprouting of quiescent MB114 cell monolayers: MB114 cells stably expressing the transgene vs GFP, 10% FBS
# Protocol: (§1) The effect putative angiogenic agents had on MB114 cell activities were determined as follows: (i) cell proliferation using a [^3H]thymidine incorporation assay as described (Albig et al, 2006; Albig and Schiemann, 2004; Albig and Schiemann, 2005); (ii) cell invasion through Matrigel matrices using a modified Boyden-chamber assay as described (Albig et al, 2006; Albig and Schiemann, 2004; Albig and Schiemann, 2005); (iii) p38 MAPK phosphorylation using immunoblot analyses as described (Albig et al, 2006; Albig and Schiemann, 2004; Albig and Schiemann, 2005); (iv) angiogenic sprouting in rat tail collagen matrices as described (Albig et al, 2006; Albig and Schiemann, 2004); and (v) Hes1- and SBE-driven luciferase reporter gene assays as described (Albig et al, 2006; Albig and Schiemann, 2004; Albig and Schiemann, 2005).
# Finally, it was determined whether expression of these putative angiogenic factors could effect the angiogenic sprouting of quiescent MB114 cells monolayers. MB114 cells expressing either GFP or various putative angiogenic agents were grown to confluency, and subsequently were overlaid with rat tail collagen matrices. Angiogenic sprouting by quiescent EC monolayers was stimulated by inclusion of 10% FBS and allowed to proceed for 5 days. The quantity of invading angiogenic sprouts was determined by manual counting under a light microscope.
# Based on the findings described in the Examples above, the inventors hypothesized that MAGP-2 promotes angiogenesis by antagonizing Notch1 signaling. To test this hypothesis, it was first determined whether inhibiting Notch signaling in MB114 cells would enhance their angiogenic sprouting. In doing so, MB114 cells were transiently transfected with the Hes1-luciferase reporter gene (and pCMV-β-gal cDNA as control), and subsequently were treated overnight with or without the highly specific gamma-secretase inhibitor, DAPT (Sastre et al, 2001), which inhibits S3-mediated cleavage of Notch1 and, consequently, NICD-mediated induction of Hes1 expression. Afterward, luciferase and β-gal activities were determined. […] In this experiment, quiescent MB114 cell monolayers were overlaid with rat tail collagen matrices, and were induced to form angiogenic sprouts by addition of 10% FBS supplemented with or without DAPT (10 μM). Five days later the number of invading angiogenic spouts were quantified by manual counting on a light microscope. Based on these findings, the inventors conclude that Notch activation functions in mediating angiostasis in MB114 cells. […] Collectively, these findings indicate that Notch1 signaling antagonizes angiogenic sprouting in MB114 cells, and that downregulation of Notch1 signaling components is necessary for angiogenesis activation in MB114 cells.
# Having shown that Notch1 signaling mediates angiostasis in MB114 cells, the inventors next asked whether MAGP-2 promotes angiogenesis in MB114 cells via its ability to antagonize Notch signaling. To do so, MAGP-2-expressing MB114 cells were engineered to constitutively express active Notch1 NICD fragment in an attempt to overcome the block of Notch processing mediated by MAGP-2. More particularly, GFP-, MAGP-2-, and MAGP-2/N1ICD-expressing MB114 cells were transiently transfected with pHes1-luciferase and pCMV-β-gal cDNAs. Luciferase and β-gal activities were determined 48 h post-transfection. As the inventors observed previously, MAGP-2 expression reduced Hes1-luciferase activity in MB114 cells (FIG. 5C), a reaction that was bypassed by co-expression of NICD in these cells (FIG. 5C). […] In this experiment, quiescent monolayers of GFP-, MAGP-2-, and MAGP-2/N1ICD-expressing MB114 cells were overlaid with rat tail collagen matrices and incubated in the absence or presence of 10% FBS for 5 days. Afterward, the number of invading angiogenic sprouts were determined by manual counting under a light microscope.
# [2] = test system: Hes1 promoter (Notch1 signaling); assay: Hes1-driven luciferase reporter gene assay in MB114 cells; conditions: MB114 cells treated overnight with 10 μM
# Protocol: as §1
# MAGP-2 can interact physically with Notch1 and its ligand, Jagged-1 (Miyamoto et al, 2006; Nehring et al, 2005), resulting in the ectodomain shedding of both molecules from the cell surface. Notch signaling also plays an essential role in regulating normal vessel development and angiogenesis in mammals (Leong and Karsan, 2005; Shawber and Kitajewski, 2004). Given these two facts, the inventors hypothesized that MAGP-2 promotes angiogenesis by modulating Notch1 signaling. To test this hypothesis, first measured were changes in luciferase expression driven by a Hes1-luciferase reporter gene whose expression is induced by Notch1 activation (Iso et al, 2003). MB114 and HUVEC cells were transiently transfected either with pHes1-luciferase, pCMV-β-gal, and MAGP-2 cDNAs, or with pHes1-luciferase and pCMV-β-gal cDNAs and subsequently stimulated with rMAGP-2 (1 or 5 mg/ml). Afterward, luciferase and β-gal activities contained in detergent-solubilized cell extracts were measured. In addition, GFP- and MAGP-2-expressing MB114 cells were transiently transfected with pHes1-luciferase and pCMV-β-gal cDNAs, together with or without Jagged-1 cDNA as indicated. Afterward, luciferase and β-gal activities were measured as above.
# To further investigate the impact of MAGP-2 on Notch1 processing and NICD accumulation, the inventors took advantage of recent findings showing that the ability of TGF-β to induce Hes1 promoter activity requires Smad3 to interact physically with NICD (Blokzijl et al, 2003), a reaction that is dispensable for canonical Smad3-mediated signaling stimulated by TGF-β (Blokzijl et al, 2003). It was therefore reasoned that the ability of MAGP-2 to inhibit NICD production in ECs would reduce the capacity of TGF-β to induce luciferase expression driven by the Hes1 promoter, but not that driven by the synthetic Smad2/3-binding element (SBE). GFP- and MAGP-2-expressing MB114 cells were transiently transfected with either pHes1- or pSBE-luciferase, both together with pCMV-β-gal as indicated in FIG. 4B. Afterward, the resulting transfectants were stimulated overnight with increasing concentrations of TGF-β1 (0-5 ng/ml).
# Based on the findings described in the Examples above, the inventors hypothesized that MAGP-2 promotes angiogenesis by antagonizing Notch1 signaling. To test this hypothesis, it was first determined whether inhibiting Notch signaling in MB114 cells would enhance their angiogenic sprouting. […] Afterward, luciferase and β-gal activities were determined. […]
# MB114 cells [3] = assay: cell proliferation, [3H]thymidine incorporation assay; conditions: serum-starved MB114 cells stably expressing the transgene vs GFP; EGF 10 ng/ml, 24 h, 37° C.
# Protocol: as §1
# (§2) FIG. 1A show results from an experiment in which serum-starved MB114 cells, stably expressing either GFP or various putative angiogenic agents, were stimulated in the absence or presence of either bFGF (50 ng/ml) or EGF (10 ng/ml) for 24 h at 37° C. Differences in MB114 cell DNA synthesis was determined by measuring [^3H]thymidine incorporation into cellular DNA. […] In this experiment, invasion of MB114 cells expressing either GFP or various putative angiogenic agents through synthetic basement membranes was determined over 48 h using a modified Boyden-chamber assay.
# MB114 cells [4] = assay: cell invasion through Matrigel matrices, modified Boyden-chamber assay; conditions: MB114 cells stably expressing the transgene vs GFP; 48 h
# Protocol: as §1, §2
Molecule,angiogenic sprouting of quiescent MB114 cell monolayers (MB114 cells [1]),other results
"C[C@H](NC(=O)Cc1cc(F)cc(F)c1)C(=O)N[C@H](C(=O)OC(C)(C)C)c1ccccc1 [DAPT, reference compound]",–,"number of invading angiogenic sprouts (MB114 cells [1]; MB114 monolayers, 10% FBS with 10 μM compound vs untreated): significantly more; Hes1 promoter activity (Hes1-luciferase) [2]: significantly inhibited"
"matrillin-2: secretory protein stably expressed in MB114 cells by retroviral transduction (protein, UniProt O08746 24-956, looked up) Matrilin-2: RERPQARFPSRGRHVRMYPQTALLESSCENKRADLVFIIDSSRSVNTYDYAKVKEFILDILQFLDIGPDVTRVGLLQYGSTVKNEFSLKTFKRKSEVERAVKRMRHLSTGTMTGLAIQYALNIAFSEAEGARPLRENVPRIIMIVTDGRPQDSVAEVAAKARNTGILIFAIGVGQVDLNTLKAIGSEPHKDHVFLVANFSQIESLTSVFQNKLCTVHMCSVLEHNCAHFCLNTPGSYICKCKQGYILSTDQKTCRIQDLCATEDHGCEQLCVNMLGSFVCQCYSGYTLAEDGKRCTAVDYCASENHGCEHECVNAESSYLCRCHEGFALNSDKKTCSKIDYCASSNHGCQHECVNAQTSALCRCLKGFMLNPDRKTCRRINYCALNKPGCEHECVNTEEGHYCRCRQGYNLDPNGKTCSRVDHCAQQDHGCEQLCLNTEESFVCQCSEGFLINDDLKTCSRADYCLLSNHGCEYSCVNTDKSFACQCPEGHVLRSDGKTCAKLDSCALGDHGCEHSCVSSEDSFVCQCFEGYILRDDGKTCRRKDVCQDVNHGCEHLCVNSGESYVCKCLEGFRLAEDGKRCRRKNVCKSTQHGCEHMCVNNGNSYLCRCSEGFVLAEDGKHCKRCTEGPIDLVFVIDGSKSLGEENFETVKHFVTGIIDSLAVSPKAARVGLLQYSTQVRTEFTLRGFSSAKEMKKAVTHMKYMGKGSMTGLALKHMFERSFTQVEGARPPSTQVPRVAIVFTDGRAQDDVSEWASKAKANGITMYAVGVGKAIEEELQEIASEPIDKHLFYAEDFSTMGEISEKLKEGICEALEDSGGRQDSAAWDLPQQAHQPTEPEPVTIKIKDLLSCSNFAVQHRFLFEEDNLSRSTQKLFHSTKSSGNPLEESQDQCKCENLILFQNVANEEVRKLTQRLEEMTQRMEALENRLKYR",failed to significantly affect,–
"AK002276: putative transmembrane protein stably expressed in MB114 cells by retroviral transduction (protein, listed as Mus musculus) MASRESGGSRAAALLLVLGVERSLALPKICTLCPGGMHNLSRVAAYCEDTSKLMQARCCLNQKGPILGLNLQNCSLKDPGPNFLQAYTAIIIDLQANPLKDDLANTFRGFTQLQTLILPQDVPCPGGSNAWDNVTSFKDKQICQGQRDLCNSTGSPEMCPENGSCASDGPGLLQCVCADGFHGYKCMRQGSFSLLMFFGILGSTTLAISILLWGTQRRKAKAS",failed to significantly affect,proliferative response of MB114 cells to EGF ([3H]thymidine incorporation into cellular DNA) (MB114 cells [3]): significantly enhanced
"ECM-1: secretory glycoprotein stably expressed in MB114 cells by retroviral transduction (protein, UniProt Q61508 20-559, looked up) Extracellular matrix protein 1: ASEGAFKASDQREMTPERLFQHLHEVGYAAPPSPPQTRRLRVDHSVTSLHDPPLFEEQREVQPPSSPEDIPVYEEDWPTFLNPNVDKAGPAVPQEAIPLQKEQPPPQVHIEQKEIDPPAQPQEEIVQKEVKPHTLAGQLPPEPRTWNPARHCQQGRRGVWGHRLDGFPPGRPSPDNLKQICLPERQHVIYGPWNLPQTGYSHLSRQGETLNVLETGYSRCCRCRSDTNRLDCLKLVWEDAMTQFCEAEFSVKTRPHLCCRLRGEERFSCFQKEAPRPDYLLRPCPVHQNGMSSGPQLPFPPGLPTPDNVKNICLLRRFRAVPRNLPATDAIQRQLQALTRLETEFQRCCRQGHNHTCTWKAWEGTLDGYCERELAIKTHPHSCCHYPPSPARDECFAHLAPYPNYDRDILTLDLSRVTPNLMGQLCGSGRVLSKHKQIPGLIQNMTIRCCELPYPEQACCGEEEKLAFIENLCGPRRNSWKDPALCCDLSPEDKQINCFNTNYLRNVALVAGDTGNATGLGEQGPTRGTDANPAPGSKEE",significantly decreased,–
"CRELD-2: secretory protein stably expressed in MB114 cells by retroviral transduction (protein, UniProt Q9CYA0 23-350, looked up) Protein disulfide isomerase …: SRKPTMCQRCRTLVDKFNQGMANTARKNFGGGNTAWEEKTLSKYEFSEIRLLEIMEGLCDSSDFECNQLLEQQEEQLEAWWQTLKKEHPNLFEWFCVHTLKACCLPGTYGPDCQECQGGSERPCSGNGYCSGDGSRQGDGSCQCHTGYKGPLCIDCTDGFFSLQRNETHSICSACDESCKTCSGPSNKDCIQCEVGWARVEDACVDVDECAAETSPCSDGQYCENVNGSYTCEDCDSTCVGCTGKGPANCKECIAGYTKESGQCTDIDECSLEEKACKRKNENCYNVPGSFVCVCPEGFEETEDACVQTAEGKVTEENPTQPPSREDL",failed to significantly affect,MB114 cell invasion through synthetic basement membranes (MB114 cells [4]): significantly induced
